# Laboratory results published in PMC2793008.
# Molecular target: integrin alpha2beta1 (human (endogenous in cord blood derived megakaryocytes)) (UniProt P17301)
# UniProt P17301, sequence (P17301 30-1181, chain 1 of 2): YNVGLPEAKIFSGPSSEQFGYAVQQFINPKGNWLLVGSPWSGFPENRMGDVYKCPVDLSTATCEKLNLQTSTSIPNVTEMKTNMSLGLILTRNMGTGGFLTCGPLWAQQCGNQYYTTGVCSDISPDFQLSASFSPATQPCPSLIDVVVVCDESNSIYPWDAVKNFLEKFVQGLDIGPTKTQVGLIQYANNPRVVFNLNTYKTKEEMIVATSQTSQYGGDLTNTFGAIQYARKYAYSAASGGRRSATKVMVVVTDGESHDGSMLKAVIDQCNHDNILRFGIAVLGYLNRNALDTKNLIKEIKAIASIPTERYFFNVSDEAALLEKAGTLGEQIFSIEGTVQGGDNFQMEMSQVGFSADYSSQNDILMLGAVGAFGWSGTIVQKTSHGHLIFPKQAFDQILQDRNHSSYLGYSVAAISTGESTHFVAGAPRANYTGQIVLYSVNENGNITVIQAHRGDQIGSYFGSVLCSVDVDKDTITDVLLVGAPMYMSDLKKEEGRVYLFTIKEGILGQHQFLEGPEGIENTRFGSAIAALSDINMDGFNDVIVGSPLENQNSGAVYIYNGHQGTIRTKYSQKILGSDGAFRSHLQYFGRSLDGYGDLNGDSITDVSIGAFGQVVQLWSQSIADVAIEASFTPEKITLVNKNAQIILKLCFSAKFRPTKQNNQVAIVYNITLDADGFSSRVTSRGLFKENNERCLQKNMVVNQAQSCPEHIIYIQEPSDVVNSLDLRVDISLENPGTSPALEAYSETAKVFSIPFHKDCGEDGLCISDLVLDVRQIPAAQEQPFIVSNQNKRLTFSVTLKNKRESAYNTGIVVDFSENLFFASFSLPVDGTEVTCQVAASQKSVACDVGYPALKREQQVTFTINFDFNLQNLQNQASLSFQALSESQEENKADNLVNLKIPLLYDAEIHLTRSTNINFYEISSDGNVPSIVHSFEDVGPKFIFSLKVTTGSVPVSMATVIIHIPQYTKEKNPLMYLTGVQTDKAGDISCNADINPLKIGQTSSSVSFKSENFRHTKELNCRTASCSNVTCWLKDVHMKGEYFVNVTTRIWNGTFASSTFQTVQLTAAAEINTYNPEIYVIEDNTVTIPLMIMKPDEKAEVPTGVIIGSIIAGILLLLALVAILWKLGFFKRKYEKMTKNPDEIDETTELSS
# UniProt P17301, sequence (P05556 21-798, chain 2 of 2, further chain): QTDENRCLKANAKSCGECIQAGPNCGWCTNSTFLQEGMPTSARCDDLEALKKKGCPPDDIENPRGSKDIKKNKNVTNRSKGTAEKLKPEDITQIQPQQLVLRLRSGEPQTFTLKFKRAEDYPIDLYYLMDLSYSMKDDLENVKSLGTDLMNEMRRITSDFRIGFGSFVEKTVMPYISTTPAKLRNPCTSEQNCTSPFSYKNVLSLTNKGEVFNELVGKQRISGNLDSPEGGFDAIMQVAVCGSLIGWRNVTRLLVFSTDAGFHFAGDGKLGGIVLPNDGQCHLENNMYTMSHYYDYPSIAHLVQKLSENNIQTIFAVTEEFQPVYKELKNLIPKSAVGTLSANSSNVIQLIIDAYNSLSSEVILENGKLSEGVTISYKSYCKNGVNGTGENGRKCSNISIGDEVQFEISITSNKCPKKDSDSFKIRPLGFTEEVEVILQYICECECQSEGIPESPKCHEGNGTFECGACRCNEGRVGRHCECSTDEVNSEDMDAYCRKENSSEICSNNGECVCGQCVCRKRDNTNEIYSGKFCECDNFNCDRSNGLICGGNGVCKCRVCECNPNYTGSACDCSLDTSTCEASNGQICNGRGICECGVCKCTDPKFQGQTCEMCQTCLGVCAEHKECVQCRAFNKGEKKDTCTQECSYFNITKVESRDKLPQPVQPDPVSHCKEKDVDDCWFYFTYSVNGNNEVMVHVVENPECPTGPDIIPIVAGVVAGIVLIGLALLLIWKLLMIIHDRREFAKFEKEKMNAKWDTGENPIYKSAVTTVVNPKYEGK
substance,measurement,value
type I collagen (from UniProt P02452 162-1218; P08123 80-1119) (complex),"adhesion of mature megakaryocytes to hOSTs (day 18) after pre-incubation with 30 µg/mL anti-integrin alpha2 monoclonal antibody P1E6, against unrelated IgG",30%
